From the supplement of paper PMC9112550, “Optimization of the antimicrobial peptide Bac7 by deep mutational scanning” (BMC Biology, 2022)

Test system: Escherichia coli TOP10
Test: shrunken log2 fold change of peptide-encoding DNA abundance (4.5 h post-induction vs induction); higher = less antimicrobial activity (less host growth inhibition)
Details: time post-induction: 4.5 h; library: site-saturation at positions 5, 18, 19, 20
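Further: peptides expressed intracellularly from a pBAD plasmid library in pooled LB shake-flask culture, induced with 0.3% L-arabinose, DNA abundance read by NGS, three biological replicates, DESeq2 with apeglm shrinkage.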

| Sequence | shrunken log2 fold change |
| --- | --- |
| RRIRMRPPRLPRPRPRPSVWPRP | 0.275 |
| RRIRARPPRLPRPRPRPMHCPRP | 0.0899 |
| RRIRKRPPRLPRPRPRPDKAPRP | 0.0987 |
| RRIRHRPPRLPRPRPRPYRYPRP | -0.177 |
| RRIRVRPPRLPRPRPRPQLRPRP | 0.0648 |
| RRIRMRPPRLPRPRPRPHDQPRP | 0.351 |
| RRIRERPPRLPRPRPRPVLPPRP | -0.0942 |
| RRIRCRPPRLPRPRPRPMITPRP | -0.0256 |
| RRIRRRPPRLPRPRPRPHYYPRP | -0.0297 |
| RRIRNRPPRLPRPRPRPLPDPRP | -0.0552 |
| RRIRYRPPRLPRPRPRPSEDPRP | -0.123 |
| RRIRRRPPRLPRPRPRPFHMPRP | -0.0949 |
| RRIRDRPPRLPRPRPRPMVHPRP | 0.234 |
| RRIRHRPPRLPRPRPRPEVIPRP | 0.0357 |
| RRIRVRPPRLPRPRPRPHGCPRP | -0.041 |
| RRIRQRPPRLPRPRPRPNINPRP | -0.633 |
| RRIRERPPRLPRPRPRPKETPRP | 0.0319 |
| RRIRNRPPRLPRPRPRPHNPPRP | -0.143 |
| RRIRRRPPRLPRPRPRPVYWPRP | 0.303 |
| RRIRIRPPRLPRPRPRPMPYPRP | -0.0219 |
| RRIRHRPPRLPRPRPRPIFWPRP | -0.0136 |
| RRIRSRPPRLPRPRPRPRYRPRP | -0.276 |

| Sequence | shrunken log2 fold change |
| --- | --- |
| RRIRNRPPRLPRPRPRPEPQPRP | 1 |
| RRIRFRPPRLPRPRPRPCWWPRP | 0.696 |
| RRIRTRPPRLPRPRPRPVSSPRP | 0.651 |
| RRIRSRPPRLPRPRPRPTANPRP | 0.293 |
| RRIRYRPPRLPRPRPRPVFWPRP | 0.11 |
| RRIRDRPPRLPRPRPRPAEFPRP | 0.149 |
| RRIRSRPPRLPRPRPRPTNQPRP | -0.311 |
| RRIRQRPPRLPRPRPRPKPVPRP | 0.407 |
| RRIRYRPPRLPRPRPRPIYAPRP | -0.461 |
| RRIRYRPPRLPRPRPRPWRDPRP | -0.0075 |
| RRIRLRPPRLPRPRPRPKNVPRP | -0.124 |
| RRIRERPPRLPRPRPRPVFNPRP | -0.329 |
| RRIRHRPPRLPRPRPRPMASPRP | -0.0864 |
| RRIRDRPPRLPRPRPRPQVGPRP | 0.132 |
| RRIRMRPPRLPRPRPRPAAFPRP | 0.503 |
| RRIRLRPPRLPRPRPRPVSPPRP | -0.00493 |
| RRIRHRPPRLPRPRPRPSLPPRP | -0.328 |
| RRIRCRPPRLPRPRPRPHDWPRP | 0.112 |
| RRIRLRPPRLPRPRPRPTEYPRP | -0.0401 |
| RRIRSRPPRLPRPRPRPTTDPRP | 0.0457 |
| RRIRTRPPRLPRPRPRPECTPRP | 0.0491 |
| RRIRGRPPRLPRPRPRPSAGPRP | 1.09 |

| Sequence | shrunken log2 fold change |
| --- | --- |
| RRIRRRPPRLPRPRPRPSIWPRP | 0.032 |
| RRIRRRPPRLPRPRPRPGKMPRP | 0.0473 |
| RRIRKRPPRLPRPRPRPMMPPRP | 0.234 |
| RRIRLRPPRLPRPRPRPDNPPRP | -0.231 |
| RRIRYRPPRLPRPRPRPISVPRP | -0.534 |
| RRIRYRPPRLPRPRPRPILYPRP | -0.679 |
| RRIRHRPPRLPRPRPRPQYFPRP | -0.439 |
| RRIRERPPRLPRPRPRPDAVPRP | -0.0146 |
| RRIRTRPPRLPRPRPRPHPDPRP | -0.00834 |
| RRIRARPPRLPRPRPRPTNQPRP | 0.153 |
| RRIRGRPPRLPRPRPRPEDTPRP | 1.58 |
| RRIRVRPPRLPRPRPRPWGSPRP | -0.137 |
| RRIRYRPPRLPRPRPRPKLQPRP | 0.124 |
| RRIRARPPRLPRPRPRPVLRPRP | 0.228 |
| RRIRNRPPRLPRPRPRPLMYPRP | -0.158 |
| RRIRDRPPRLPRPRPRPPPYPRP | -0.0814 |
| RRIRLRPPRLPRPRPRPSQNPRP | -0.278 |
| RRIRLRPPRLPRPRPRPYNGPRP | -0.103 |
| RRIRQRPPRLPRPRPRPTGHPRP | 0.00113 |
| RRIRMRPPRLPRPRPRPSVKPRP | 0.185 |
| RRIRWRPPRLPRPRPRPLFMPRP | -0.286 |
| RRIRARPPRLPRPRPRPRESPRP | 0.198 |

| Sequence | shrunken log2 fold change |
| --- | --- |
| RRIRLRPPRLPRPRPRPYVIPRP | -0.662 |
| RRIRDRPPRLPRPRPRPMNPPRP | -0.0564 |
| RRIRFRPPRLPRPRPRPKAFPRP | 0.133 |
| RRIRPRPPRLPRPRPRPHVIPRP | -0.617 |
| RRIRQRPPRLPRPRPRPGCGPRP | 0.442 |
| RRIRVRPPRLPRPRPRPYQVPRP | -0.293 |
| RRIRDRPPRLPRPRPRPRMHPRP | -0.268 |
| RRIRKRPPRLPRPRPRPHHTPRP | -0.254 |
| RRIRHRPPRLPRPRPRPGDYPRP | -0.212 |
| RRIRARPPRLPRPRPRPMMDPRP | -0.203 |
| RRIRVRPPRLPRPRPRPTCNPRP | -0.233 |
| RRIRERPPRLPRPRPRPYSWPRP | -0.486 |
| RRIRPRPPRLPRPRPRPFVIPRP | 0.00225 |
| RRIRGRPPRLPRPRPRPITFPRP | -0.148 |
| RRIRYRPPRLPRPRPRPDHDPRP | -0.133 |
| RRIRKRPPRLPRPRPRPWWYPRP | -0.127 |
| RRIRKRPPRLPRPRPRPLYSPRP | -0.105 |
| RRIRCRPPRLPRPRPRPPILPRP | -0.501 |
| RRIRGRPPRLPRPRPRPDTCPRP | 0.131 |
| RRIRFRPPRLPRPRPRPTTWPRP | 0.0564 |
| RRIRRRPPRLPRPRPRPQQFPRP | 0.0492 |
| RRIRRRPPRLPRPRPRPAAKPRP | 0.267 |

| Sequence | shrunken log2 fold change |
| --- | --- |
| RRIRPRPPRLPRPRPRPFTYPRP | -0.0519 |
| RRIRDRPPRLPRPRPRPPWCPRP | 0.203 |
| RRIRDRPPRLPRPRPRPMSPPRP | 0.0807 |
| RRIRSRPPRLPRPRPRPKIRPRP | -0.177 |
| RRIRPRPPRLPRPRPRPVQCPRP | -0.0846 |
| RRIRSRPPRLPRPRPRPCAGPRP | -0.0708 |
| RRIRCRPPRLPRPRPRPWTRPRP | 0.0156 |
| RRIRLRPPRLPRPRPRPPHMPRP | -0.0106 |
| RRIRYRPPRLPRPRPRPKFPPRP | -1.01 |
| RRIRHRPPRLPRPRPRPSYEPRP | -0.503 |
| RRIRLRPPRLPRPRPRPPLWPRP | 0.447 |
| RRIRFRPPRLPRPRPRPQRAPRP | 0.462 |
| RRIRVRPPRLPRPRPRPQFIPRP | -0.128 |
| RRIRLRPPRLPRPRPRPSTIPRP | -0.246 |
| RRIRDRPPRLPRPRPRPMDRPRP | -0.01 |
| RRIRPRPPRLPRPRPRPMDAPRP | -0.128 |
| RRIRTRPPRLPRPRPRPTEDPRP | 0.196 |
| RRIRYRPPRLPRPRPRPCPLPRP | -1.91 |
| RRIRIRPPRLPRPRPRPPCDPRP | -0.48 |
| RRIRCRPPRLPRPRPRPLVTPRP | -0.195 |
| RRIRGRPPRLPRPRPRPLWHPRP | 0.552 |
